Test results: patent US20200262877A1, “ION CHANNEL-BINDING PEPTIDES AND METHODS OF USE THEREOF” (priority 2017, published 2020)

Experiments:
GABA = experiment: Ion channel panel (IonWorks Barracuda): GABA; assay type: cell-based; conditions: 100% = no change, <100% = inhibition
How it was run: (§1)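 Transfected HEK293 or CHO cells were exposed for at least 5 min to peptides at 200 nM and 20 μM final, tested in duplicate, in HEPES-buffered physiological saline. Activation was taken as peptide-plus-agonist current over control current ×100, and inhibition as 1 minus that ratio ×100. Each channel's control was its own reference compound.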

TRPV1 = biological target: T1, TRPV1 (Homo sapiens, UniProt Q8NER1); experiment: Ion channel panel (IonWorks Barracuda): TRPV1; assay type: cell-based; conditions: 100% = no change, <100% = inhibition
T1 construct: host or cells: HEK293 or CHO
How it was run: as §1

Kv2.1 = biological target: T2, Kv2.1 (Homo sapiens, UniProt Q14721); experiment: cell-based; conditions: 100% = no change, <100% = inhibition
T2 construct: host or cells: HEK293 or CHO
How it was run: as §1

Cav2.2 = biological target: T3, Cav2.2 (Homo sapiens, UniProt Q00975); experiment: cell-based; conditions: 100% = no change, <100% = inhibition
T3 construct: host or cells: HEK293 or CHO
How it was run: as §1

Cav2.1 = biological target: T4, Cav2.1 (Homo sapiens, UniProt O00555); experiment: cell-based; conditions: 100% = no change, <100% = inhibition
T4 construct: host or cells: HEK293 or CHO
How it was run: as §1

5HT3a = biological target: T5, 5HT3a (Homo sapiens, UniProt P46098); experiment: Ion channel panel (IonWorks Barracuda): 5HT3a; assay type: cell-based
T5 construct: host or cells: HEK293 or CHO
T5 sequence (P46098 whole entry, looked up): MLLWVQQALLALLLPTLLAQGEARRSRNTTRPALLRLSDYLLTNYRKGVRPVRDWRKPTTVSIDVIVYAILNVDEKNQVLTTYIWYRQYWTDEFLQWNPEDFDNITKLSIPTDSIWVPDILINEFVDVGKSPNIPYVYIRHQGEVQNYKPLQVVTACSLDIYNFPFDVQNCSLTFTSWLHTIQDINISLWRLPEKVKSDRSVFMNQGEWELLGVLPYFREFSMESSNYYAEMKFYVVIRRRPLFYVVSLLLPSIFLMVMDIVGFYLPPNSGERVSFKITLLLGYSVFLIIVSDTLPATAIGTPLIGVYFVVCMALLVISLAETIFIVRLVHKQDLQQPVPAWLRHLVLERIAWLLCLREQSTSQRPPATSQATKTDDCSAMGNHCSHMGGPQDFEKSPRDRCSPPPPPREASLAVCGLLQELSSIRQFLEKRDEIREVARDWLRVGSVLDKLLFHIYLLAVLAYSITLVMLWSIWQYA
How it was run: as §1

Kir2.1 = biological target: T6, Kir2.1 (Homo sapiens, UniProt P63252); experiment: Ion channel panel (IonWorks Barracuda): Kir2.1; assay type: cell-based; conditions: 100% = no change, <100% = inhibition
T6 construct: host or cells: HEK293 or CHO
How it was run: as §1

NR2B = biological target: T7, NR2B (Homo sapiens, UniProt Q13224); experiment: Ion channel panel (IonWorks Barracuda): NR2B; assay type: cell-based; conditions: 100% = no change, <100% = inhibition
T7 construct: host or cells: HEK293 or CHO
How it was run: as §1

TRPA1 = biological target: T8, TRPA1 (Homo sapiens, UniProt O75762); experiment: Ion channel panel (IonWorks Barracuda): TRPA1; assay type: cell-based; conditions: 100% = no change, <100% = inhibition
T8 construct: host or cells: HEK293 or CHO
How it was run: as §1

α4β2 = biological target: T9, α4β2 (Homo sapiens, UniProt P17787+P43681); experiment: Ion channel panel (IonWorks Barracuda): α4β2; assay type: cell-based; conditions: 100% = no change, <100% = inhibition
T9 construct: host or cells: HEK293 or CHO
How it was run: as §1

hERG = hERG (Homo sapiens, UniProt Q12809); experiment: in vitro; conditions: 100% = no change, <100% = inhibition
How it was run: as §1

Nav1.5 = Nav1.5 (Homo sapiens, UniProt Q14524); experiment: in vitro; conditions: 100% = no change; for Activity of Nav1.5 with peptide, expressed as a percentage of the reference compound: peptide at 0.2 μM; for Activity of Nav1.5 with peptide (percentage of the reference compound): peptide at 20 μM
How it was run: as §1

α3β4 = biological target: T10, α3β4 (Homo sapiens, UniProt P30926+P32297); experiment: Ion channel panel (IonWorks Barracuda): α3β4; assay type: cell-based; conditions: 100% = no change, <100% = inhibition
T10 construct: host or cells: HEK293 or CHO
How it was run: as §1

NR2A = biological target: T11, NR2A (Homo sapiens, UniProt Q12879); experiment: Ion channel panel (IonWorks Barracuda): NR2A; assay type: cell-based; conditions: 100% = no change, <100% = inhibition
T11 construct: host or cells: HEK293 or CHO
How it was run: as §1

Nav1.7 = biological target: T12, Nav1.7 (Homo sapiens, UniProt Q15858); experiment: cell-based; assay type: cell-based; conditions: 100% = no change; for Activity of Nav1.7 with peptide, expressed as a percentage of the reference compound: peptide at 0.2 μM; for Activity of Nav1.7 with peptide (percentage of the reference compound): peptide at 20 μM
T12 construct: host or cells: HEK293 or CHO

Kv1.1 = biological target: T13, Kv1.1 (Homo sapiens, UniProt Q09470); experiment: cell-based; assay type: cell-based; conditions: 100% = no change, <100% = inhibition
T13 construct: host or cells: HEK293 or CHO
How it was run: as §1

Kv1.2 = biological target: T14, Kv1.2 (Homo sapiens, UniProt P16389); experiment: cell-based; assay type: cell-based; conditions: 100% = no change, <100% = inhibition
T14 construct: host or cells: HEK293 or CHO
How it was run: as §1

Kv1.3 = biological target: T15, Kv1.3 (Homo sapiens, UniProt P22001); experiment: cell-based; assay type: cell-based; conditions: 100% = no change, <100% = inhibition
T15 construct: host or cells: HEK293 or CHO
How it was run: as §1

[1] = first of two Nav1.5 columns (probably TP1)
[2] = second of two Nav1.5 columns (probably TP2)
[3] = first of two Nav1.7 columns (probably TP1)
[4] = second of two Nav1.7 columns (probably TP2)

T12 sequence (Q15858 whole entry): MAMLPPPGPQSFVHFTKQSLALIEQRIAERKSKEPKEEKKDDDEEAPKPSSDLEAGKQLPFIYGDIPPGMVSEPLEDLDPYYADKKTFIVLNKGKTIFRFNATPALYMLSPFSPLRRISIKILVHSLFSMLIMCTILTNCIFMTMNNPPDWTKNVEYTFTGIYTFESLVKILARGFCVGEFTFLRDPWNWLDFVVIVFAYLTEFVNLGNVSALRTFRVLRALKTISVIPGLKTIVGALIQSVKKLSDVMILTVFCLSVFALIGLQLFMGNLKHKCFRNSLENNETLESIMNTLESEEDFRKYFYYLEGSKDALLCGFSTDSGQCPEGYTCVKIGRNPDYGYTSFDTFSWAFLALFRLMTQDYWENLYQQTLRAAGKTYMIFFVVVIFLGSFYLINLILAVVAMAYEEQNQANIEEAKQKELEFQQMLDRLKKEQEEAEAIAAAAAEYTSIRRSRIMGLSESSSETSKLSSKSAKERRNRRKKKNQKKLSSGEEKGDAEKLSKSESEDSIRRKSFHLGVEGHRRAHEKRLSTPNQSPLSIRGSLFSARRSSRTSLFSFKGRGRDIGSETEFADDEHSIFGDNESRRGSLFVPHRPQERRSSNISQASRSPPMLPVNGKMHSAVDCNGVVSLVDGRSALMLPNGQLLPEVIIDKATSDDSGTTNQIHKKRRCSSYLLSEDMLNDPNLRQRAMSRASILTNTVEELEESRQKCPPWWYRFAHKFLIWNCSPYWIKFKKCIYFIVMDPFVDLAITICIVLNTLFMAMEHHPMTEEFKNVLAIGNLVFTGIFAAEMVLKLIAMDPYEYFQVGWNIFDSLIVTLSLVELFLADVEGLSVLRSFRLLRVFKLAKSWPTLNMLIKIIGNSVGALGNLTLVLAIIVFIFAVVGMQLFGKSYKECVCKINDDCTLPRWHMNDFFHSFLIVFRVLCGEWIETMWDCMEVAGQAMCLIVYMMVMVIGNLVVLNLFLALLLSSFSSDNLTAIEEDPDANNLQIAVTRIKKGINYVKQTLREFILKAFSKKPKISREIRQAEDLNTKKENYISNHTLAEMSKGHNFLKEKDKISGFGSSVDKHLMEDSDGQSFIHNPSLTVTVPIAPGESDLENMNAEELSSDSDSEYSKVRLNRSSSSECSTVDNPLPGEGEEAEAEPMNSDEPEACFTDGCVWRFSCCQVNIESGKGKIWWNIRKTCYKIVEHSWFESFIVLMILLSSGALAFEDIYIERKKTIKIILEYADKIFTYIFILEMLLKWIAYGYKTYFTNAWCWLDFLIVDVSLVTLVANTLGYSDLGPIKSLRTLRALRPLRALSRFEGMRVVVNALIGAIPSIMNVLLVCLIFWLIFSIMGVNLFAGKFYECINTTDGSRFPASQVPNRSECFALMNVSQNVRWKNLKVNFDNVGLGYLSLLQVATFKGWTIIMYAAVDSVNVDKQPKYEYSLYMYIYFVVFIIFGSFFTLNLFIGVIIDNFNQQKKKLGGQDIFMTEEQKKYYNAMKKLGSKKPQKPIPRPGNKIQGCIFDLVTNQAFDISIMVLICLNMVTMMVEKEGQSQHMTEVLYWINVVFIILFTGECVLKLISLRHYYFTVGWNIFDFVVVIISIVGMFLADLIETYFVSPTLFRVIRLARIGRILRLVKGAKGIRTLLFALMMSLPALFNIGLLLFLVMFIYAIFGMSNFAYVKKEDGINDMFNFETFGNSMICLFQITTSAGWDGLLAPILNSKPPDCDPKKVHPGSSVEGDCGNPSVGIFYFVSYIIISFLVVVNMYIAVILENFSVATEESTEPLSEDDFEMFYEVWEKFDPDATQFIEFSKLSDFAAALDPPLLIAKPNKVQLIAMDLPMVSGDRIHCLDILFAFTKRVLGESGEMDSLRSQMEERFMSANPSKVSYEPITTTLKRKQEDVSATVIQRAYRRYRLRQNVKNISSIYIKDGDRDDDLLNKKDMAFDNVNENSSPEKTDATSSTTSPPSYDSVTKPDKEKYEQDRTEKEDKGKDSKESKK
Nav1.5, sequence (Q14524 whole entry): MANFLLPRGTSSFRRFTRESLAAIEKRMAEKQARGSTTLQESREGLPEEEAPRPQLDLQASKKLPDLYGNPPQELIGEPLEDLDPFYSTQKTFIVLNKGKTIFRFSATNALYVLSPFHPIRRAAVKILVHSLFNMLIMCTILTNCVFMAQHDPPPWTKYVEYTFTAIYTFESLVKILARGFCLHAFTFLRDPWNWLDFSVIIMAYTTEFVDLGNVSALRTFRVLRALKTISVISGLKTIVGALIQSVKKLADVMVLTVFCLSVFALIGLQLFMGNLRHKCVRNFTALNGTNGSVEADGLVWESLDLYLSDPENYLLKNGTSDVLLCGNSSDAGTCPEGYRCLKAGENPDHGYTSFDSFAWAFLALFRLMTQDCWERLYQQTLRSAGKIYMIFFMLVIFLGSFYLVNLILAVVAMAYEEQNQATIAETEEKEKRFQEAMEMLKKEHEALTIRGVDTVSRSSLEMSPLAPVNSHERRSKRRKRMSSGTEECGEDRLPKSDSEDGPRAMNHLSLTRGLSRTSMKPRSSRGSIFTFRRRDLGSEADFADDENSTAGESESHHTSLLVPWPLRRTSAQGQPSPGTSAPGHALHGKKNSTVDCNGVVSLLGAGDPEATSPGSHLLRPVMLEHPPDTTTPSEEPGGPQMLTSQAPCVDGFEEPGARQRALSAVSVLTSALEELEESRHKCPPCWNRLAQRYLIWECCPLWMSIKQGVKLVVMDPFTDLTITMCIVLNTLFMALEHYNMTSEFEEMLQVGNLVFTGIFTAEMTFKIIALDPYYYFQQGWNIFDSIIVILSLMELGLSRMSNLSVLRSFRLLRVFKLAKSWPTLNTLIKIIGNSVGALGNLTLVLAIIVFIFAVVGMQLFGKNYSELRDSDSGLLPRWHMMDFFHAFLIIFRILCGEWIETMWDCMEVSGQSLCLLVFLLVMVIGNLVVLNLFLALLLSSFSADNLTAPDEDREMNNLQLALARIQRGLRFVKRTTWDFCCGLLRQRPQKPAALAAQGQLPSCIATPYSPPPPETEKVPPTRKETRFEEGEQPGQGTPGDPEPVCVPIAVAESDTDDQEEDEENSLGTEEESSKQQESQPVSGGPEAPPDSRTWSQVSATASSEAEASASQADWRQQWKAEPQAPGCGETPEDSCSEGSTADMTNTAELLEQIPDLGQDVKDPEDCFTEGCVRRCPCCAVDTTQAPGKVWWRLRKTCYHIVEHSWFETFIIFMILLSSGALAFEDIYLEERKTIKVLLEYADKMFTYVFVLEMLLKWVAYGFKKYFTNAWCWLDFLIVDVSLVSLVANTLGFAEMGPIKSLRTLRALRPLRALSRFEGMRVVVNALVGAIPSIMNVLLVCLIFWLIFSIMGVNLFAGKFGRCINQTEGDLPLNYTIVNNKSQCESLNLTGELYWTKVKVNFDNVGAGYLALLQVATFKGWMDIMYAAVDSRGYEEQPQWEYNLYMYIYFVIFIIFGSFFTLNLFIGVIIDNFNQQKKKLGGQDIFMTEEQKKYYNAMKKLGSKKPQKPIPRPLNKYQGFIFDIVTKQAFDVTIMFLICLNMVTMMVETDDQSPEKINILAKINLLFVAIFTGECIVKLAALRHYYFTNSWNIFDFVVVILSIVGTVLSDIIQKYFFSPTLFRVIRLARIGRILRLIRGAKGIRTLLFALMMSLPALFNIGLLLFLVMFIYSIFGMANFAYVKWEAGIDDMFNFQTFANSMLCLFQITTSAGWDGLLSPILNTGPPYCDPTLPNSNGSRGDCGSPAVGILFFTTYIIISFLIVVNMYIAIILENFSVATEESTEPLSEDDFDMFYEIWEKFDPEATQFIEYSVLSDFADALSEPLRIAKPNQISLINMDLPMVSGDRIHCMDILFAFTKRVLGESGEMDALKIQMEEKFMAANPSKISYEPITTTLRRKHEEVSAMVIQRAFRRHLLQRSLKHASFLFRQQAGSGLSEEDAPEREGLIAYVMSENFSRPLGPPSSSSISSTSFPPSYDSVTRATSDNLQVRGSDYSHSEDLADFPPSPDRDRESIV
T15 sequence (P22001 whole entry): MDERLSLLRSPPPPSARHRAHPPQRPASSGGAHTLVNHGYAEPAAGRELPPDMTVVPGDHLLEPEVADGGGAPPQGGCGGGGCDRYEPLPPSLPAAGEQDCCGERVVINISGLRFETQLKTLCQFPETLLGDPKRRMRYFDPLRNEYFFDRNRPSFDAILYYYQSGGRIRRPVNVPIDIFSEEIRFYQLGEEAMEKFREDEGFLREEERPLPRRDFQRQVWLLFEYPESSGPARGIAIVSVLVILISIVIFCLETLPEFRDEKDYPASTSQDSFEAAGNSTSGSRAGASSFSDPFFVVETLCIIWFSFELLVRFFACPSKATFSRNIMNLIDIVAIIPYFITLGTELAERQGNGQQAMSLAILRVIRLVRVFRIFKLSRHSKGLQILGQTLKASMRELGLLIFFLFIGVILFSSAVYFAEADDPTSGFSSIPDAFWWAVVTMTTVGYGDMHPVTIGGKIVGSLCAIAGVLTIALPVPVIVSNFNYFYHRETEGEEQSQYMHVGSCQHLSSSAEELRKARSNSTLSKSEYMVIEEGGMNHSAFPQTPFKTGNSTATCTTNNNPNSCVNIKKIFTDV
T14 sequence (P16389 whole entry): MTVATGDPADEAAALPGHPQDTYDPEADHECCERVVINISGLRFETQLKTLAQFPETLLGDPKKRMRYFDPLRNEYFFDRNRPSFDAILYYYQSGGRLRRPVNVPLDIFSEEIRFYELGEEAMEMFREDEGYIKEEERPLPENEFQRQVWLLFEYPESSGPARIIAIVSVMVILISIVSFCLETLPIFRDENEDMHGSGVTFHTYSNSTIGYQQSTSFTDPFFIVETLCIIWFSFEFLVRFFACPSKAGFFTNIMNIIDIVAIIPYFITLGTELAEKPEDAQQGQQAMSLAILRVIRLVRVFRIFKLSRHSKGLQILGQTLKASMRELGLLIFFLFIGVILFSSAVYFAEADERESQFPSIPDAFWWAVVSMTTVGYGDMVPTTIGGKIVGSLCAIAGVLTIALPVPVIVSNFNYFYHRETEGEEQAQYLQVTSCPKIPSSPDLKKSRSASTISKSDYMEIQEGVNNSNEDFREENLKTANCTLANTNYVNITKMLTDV

## 22 (GSSDYCSNDFCFFSCRRDRCARGDCENGKCVCKNCHLN) [compound 22]
GABA; peptide at 0.2 μM
  Activity of GABA with peptide, expressed as a percentage of the reference compound: 99%
GABA; peptide at 20 μM
  Activity of GABA with peptide (percentage of the reference compound): 124%
TRPV1; peptide at 0.2 μM
  Activity of TRPV1 with peptide, expressed as a percentage of the reference compound: 102%
TRPV1; peptide at 20 μM
  Activity of TRPV1 with peptide (percentage of the reference compound): 67%
Kv2.1; peptide at 0.2 μM
  Activity of Kv2.1 with peptide, expressed as a percentage of the reference compound: 110%
Kv2.1; peptide at 20 μM
  Activity of Kv2.1 with peptide (percentage of the reference compound): 93%
Cav2.2; peptide at 0.2 μM
  Activity of Cav2.2 with peptide, expressed as a percentage of the reference compound: 130%
Cav2.2; peptide at 20 μM
  Activity of Cav2.2 with peptide (percentage of the reference compound): 86%
Cav2.1; peptide at 0.2 μM
  Activity of Cav2.1 with peptide, expressed as a percentage of the reference compound: 98%
Cav2.1; peptide at 20 μM
  Activity of Cav2.1 with peptide (percentage of the reference compound): 99%
5HT3a
  Activity of 5HT3a with peptide (percentage of the reference compound): 95%
  Activity of 5HT3a with peptide, expressed as a percentage of the reference compound: 77%
Kir2.1; peptide at 0.2 μM
  Activity of Kir2.1 with peptide, expressed as a percentage of the reference compound: 94%
Kir2.1; peptide at 20 μM
  Activity of Kir2.1 with peptide (percentage of the reference compound): 97%
NR2B; peptide at 0.2 μM
  Activity of NR2B with peptide, expressed as a percentage of the reference compound: 94%
NR2B; peptide at 20 μM
  Activity of NR2B with peptide (percentage of the reference compound): 97%
TRPA1; peptide at 0.2 μM
  Activity of TRPA1 with peptide, expressed as a percentage of the reference compound: 90%
TRPA1; peptide at 20 μM
  Activity of TRPA1 with peptide (percentage of the reference compound): 128%
α4β2; peptide at 0.2 μM
  Activity of a4b2 with peptide, expressed as a percentage of the reference compound: 92%
α4β2; peptide at 20 μM
  Activity of a4b2 with peptide (percentage of the reference compound): 83%
hERG; peptide at 0.2 μM
  Activity of hERG with peptide, expressed as a percentage of the reference compound: 84%
hERG; peptide at 20 μM
  Activity of hERG with peptide (percentage of the reference compound): 79%
Nav1.5; [1]
  Activity of Nav1.5 with peptide, expressed as a percentage of the reference compound: 90%
  Activity of Nav1.5 with peptide (percentage of the reference compound): 112%
Nav1.5; [2]
  Activity of Nav1.5 with peptide, expressed as a percentage of the reference compound: 90%
  Activity of Nav1.5 with peptide (percentage of the reference compound): 116%
α3β4; peptide at 0.2 μM
  Activity of a3b4 with peptide, expressed as a percentage of the reference compound: 98%
α3β4; peptide at 20 μM
  Activity of a3b4 with peptide (percentage of the reference compound): 92%
NR2A; peptide at 0.2 μM
  Activity of NR2A with peptide, expressed as a percentage of the reference compound: 107%
NR2A; peptide at 20 μM
  Activity of NR2A with peptide (percentage of the reference compound): 129%
Nav1.7; [3]
  Activity of Nav1.7 with peptide, expressed as a percentage of the reference compound: 79%
  Activity of Nav1.7 with peptide (percentage of the reference compound): 94%
Nav1.7; [4]
  Activity of Nav1.7 with peptide, expressed as a percentage of the reference compound: 81%
  Activity of Nav1.7 with peptide (percentage of the reference compound): 87%
Kv1.1; peptide at 0.2 μM
  Activity of Kv1.1 with peptide, expressed as a percentage of the reference compound: 83%
Kv1.1; peptide at 20 μM
  Activity of Kv1.1 with peptide (percentage of the reference compound): 97%
Kv1.2; peptide at 0.2 μM
  Activity of Kv1.2 with peptide, expressed as a percentage of the reference compound: 82%
Kv1.2; peptide at 20 μM
  Activity of Kv1.2 with peptide (percentage of the reference compound): 34%
Kv1.3; peptide at 0.2 μM
  Activity of Kv1.3 with peptide, expressed as a percentage of the reference compound: 100%
Kv1.3; peptide at 20 μM
  Activity of Kv1.3 with peptide (percentage of the reference compound): 51%
